The text below walks through data of article PMC9404787, “The Peptide Methionine Sulfoxide Reductase (MsrAB) of Haemophilus influenzae Repairs Oxidatively Damaged Outer Membrane and Periplasmic Proteins Involved in Nutrient Acquisition and Virulence” (Antioxidants, 2022).

Holding throughout (assay): purified protein
The subject of one series is Cc1ccc([S+](C)[O-])cc1. The note with it: 20 uM rTrx, 5 uM rTrxR, 0.2 mM NADPH, 50 mM sodium phosphate pH 7.5, 37 °C, racemate, both domains.
A further series concerns Cc1ccc([S@+](C)[O-])cc1. The note with it: 20 uM rTrx, 5 uM rTrxR, 0.2 mM NADPH, 50 mM sodium phosphate pH 7.5, 37 °C, MsrA domain.
In a further series the test system is Cc1ccc([S@@+](C)[O-])cc1. Particulars: 20 uM rTrx, 5 uM rTrxR, 0.2 mM NADPH, 50 mM sodium phosphate pH 7.5, 37 °C, MsrB domain.

Turning to rMsrAB (Haemophilus influenzae Rd KW20), in the series with Cc1ccc([S+](C)[O-])cc1, the Km worked out at 2960 ± 440 µM, the maximum rate (Vmax) was 0.34 µmol/min/mg, the kcat is 0.204 ± 0.06 s⁻¹ and the kcat/Km was 68.9 M⁻¹ s⁻¹. Besides, in the series with Cc1ccc([S@+](C)[O-])cc1, the Km was found to be 3620 ± 550 µM, the maximum rate (Vmax) is 0.52 µmol/min/mg, the turnover number (kcat) came to 0.312 ± 0.12 s⁻¹ and the kcat/Km amounted to 86.1 M⁻¹ s⁻¹. In the series with Cc1ccc([S@@+](C)[O-])cc1, the Michaelis constant (Km) worked out at 2310 ± 350 µM, the maximum rate (Vmax) was found to be 0.26 µmol/min/mg, the kcat amounted to 0.156 ± 0.06 s⁻¹ and the kcat/Km came out at 67.5 M⁻¹ s⁻¹.
